The results in this text go back to PMC4482361 (Organic & biomolecular chemistry, 2011).

The target in data set [1] is T1, thymidine monophosphate kinase (TMK) (Escherichia coli, UniProt P0A720).
T1 sequence (P0A720 1-213): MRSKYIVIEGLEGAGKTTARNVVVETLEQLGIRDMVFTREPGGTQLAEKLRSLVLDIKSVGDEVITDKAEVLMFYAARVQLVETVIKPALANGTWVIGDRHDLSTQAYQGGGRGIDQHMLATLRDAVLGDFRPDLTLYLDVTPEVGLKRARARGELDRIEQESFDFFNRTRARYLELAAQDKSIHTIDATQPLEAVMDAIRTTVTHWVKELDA
As to the kind of experiment: coupled assay with ACK, HPLC. It counts as biochemical. As to conditions: phosphate donor; same.

The data set “SEC” concerns the molecule itself. Kind of data set: SEC. A general note: SEC sorts molecules by how far they enter the pores of the column.

For `Nc1ncnc2c1ncn2[C@@H]1O[C@H](COP(=O)(O)OP(=O)(O)OP(=O)(O)O)[C@@H](O)[C@H]1O` [ATP], the “coupled assay with ACK, HPLC” value in data set [1] is “ATP serves as a phosphate donor thereby converting into ADP”.

B1: RavAMT (TDP-3-keto-6-deoxy-D-galactose-3-aminotransferase) (enzyme, Streptomyces ravidus, UniProt D1H0I5 1-369, looked up)
chain: MKVPYLDLKGPHTEIRAELDAAYHRVVDSGWFVLGEEVRAFEEEYAAYCGAAHCVSVATGCDALELALRALDIGPGDEVVVPSATYIATWLAVSETGADVVPVEVDPDTHLLDPAAVEAAVTPATRAVMPVHLYGQPADLPALRRVADRHGLALIDDAAQAHGARLNGTRVGGGGLATATAFSFYPGKNLGALGDGGGILTDDAELAERLRLLRNYGSRRKYHHELKSTNSRLDELHAAVLRAKLPHLDRWNARRAEIAERYRAAFADLPGLRPTAVPEGAEPSWHLYVVCCDDRDAVQRSLTDAGVGTLIHYPVPVHLSPAYADEKRWPAGAFPRAEAIAAQVLSLPMGPHLSDADVSYVIEAVRAAV
On to B1, for which the stoichiometry N (commonly the number of molecules, sites or subunits per partner or assembly) in the data set “SEC” worked out at 2.

B2: RavIM (TDP-4-keto-6-deoxy-D-glucose-3,4-ketoisomerase) (enzyme, Streptomyces ravidus, UniProt D1H0I6 1-156, looked up)
chain: MTDTTAATGTTAGTDVSRVGKVRPCALMKLQTIGDPRGQLAVVEGAKDIGFPVKRLFYLYDLPTSSVRGDHAHRNLEQFVIPINGSFDVAVDDTVDTAVCRLDDPGQGLYIGPMVWNSLVNFSEGAIALVLASEHYDEADYYRRYDEFLADAGARP
B2: the “stoichiometry N” value in “SEC” is 2.

B3: RavNMT (TDP-3-amino-3,6-dideoxy-D-galactose-N,N-dimethyltransferase) (enzyme, Streptomyces ravidus, UniProt D1H0I7 1-265, looked up)
chain: MSTLSVSQPGTPPTPADVEQAYGAEHADVYDAIYRGRGRDYAAEADAFLAVLRTRRPEITSLLDVACGTGAHLAALRGSVDHVEGVELSPWMHTLATRQLPGVAVHQDDMRSFNLSRRFSAVTCLFSSVGYLKSVEDLRRTLRTFRAHVAPGGVALVEPWWFPETFLDGYVGSSLVEVDGRTIARVSHTVRAGSTSRMTVEYTVAEPVNGVRRFSDLHVLSLFTREQYEDAFERAGFAVEFLKDGPSGRGLFLGVAPETTDGGPR
As for B3, in the data set “SEC”, the “stoichiometry N” value came out at 2.
